Test results taken from patent publication US12692310B2, “ASIC1 channel antagonist antibody” (ShanghaiTech University, priority 2019, dated 2026).
Where two headings read alike, the source gives them in different places. No end group written: not given here.

T1: hASIC1a (Homo sapiens, UniProt P78348)
T1 construct: expressed in transfected cells
T1 sequence (P78348 1-528): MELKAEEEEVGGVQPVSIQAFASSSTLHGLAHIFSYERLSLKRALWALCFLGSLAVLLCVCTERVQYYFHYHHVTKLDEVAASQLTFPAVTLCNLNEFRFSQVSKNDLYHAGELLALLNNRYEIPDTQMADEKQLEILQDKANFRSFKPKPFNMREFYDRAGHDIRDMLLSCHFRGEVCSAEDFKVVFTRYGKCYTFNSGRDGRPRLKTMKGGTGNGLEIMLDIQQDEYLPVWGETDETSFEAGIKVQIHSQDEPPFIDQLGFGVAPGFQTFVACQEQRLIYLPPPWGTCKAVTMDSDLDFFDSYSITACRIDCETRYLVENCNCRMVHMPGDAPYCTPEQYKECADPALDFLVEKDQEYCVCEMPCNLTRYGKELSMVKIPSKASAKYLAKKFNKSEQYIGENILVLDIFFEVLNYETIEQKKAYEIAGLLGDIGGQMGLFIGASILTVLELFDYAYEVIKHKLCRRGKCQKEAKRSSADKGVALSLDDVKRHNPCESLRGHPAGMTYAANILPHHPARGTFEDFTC

T2: hASIC1a-eYFP (human, UniProt P78348 1-528)
T2 construct: whole, on cells; On CHO-K1 cells, stably (6H7) or transiently transfected; also called full-length hASIC1a (1-528 amino acids) fused with eYFP; CHO-K1/hASIC1a cells; not shown: C-terminal eYFP fusion
T2 sequence (looked up): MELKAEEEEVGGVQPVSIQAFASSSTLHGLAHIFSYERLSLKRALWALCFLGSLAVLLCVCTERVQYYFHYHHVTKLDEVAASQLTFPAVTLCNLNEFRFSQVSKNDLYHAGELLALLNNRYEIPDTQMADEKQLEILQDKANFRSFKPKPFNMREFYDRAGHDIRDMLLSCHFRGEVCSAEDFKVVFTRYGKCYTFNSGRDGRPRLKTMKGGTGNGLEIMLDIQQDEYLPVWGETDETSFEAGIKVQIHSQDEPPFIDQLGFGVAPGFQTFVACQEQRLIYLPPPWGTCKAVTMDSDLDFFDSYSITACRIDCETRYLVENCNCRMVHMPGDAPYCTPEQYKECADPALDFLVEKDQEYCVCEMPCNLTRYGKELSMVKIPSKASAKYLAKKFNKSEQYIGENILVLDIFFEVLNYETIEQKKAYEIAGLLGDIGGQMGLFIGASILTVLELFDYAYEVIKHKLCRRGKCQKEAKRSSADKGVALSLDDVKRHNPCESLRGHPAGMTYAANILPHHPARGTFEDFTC


Key:
[1] = biological target: T1, hASIC1a; assay: Whole-cell patch clamp, acid-induced hASIC1a currents in stable CHO-K1 cells; type: cell-based
Experimental: Electrophysiological Experiments. The inward cellular ASIC1a current was recorded from a single cell using standard whole-cell recording techniques by a patch-clamp amplifier (Axon 200B; Axon Instruments). Membrane currents were sampled and analyzed using a Digidata 1320A interface and a personal computer with Clampex and Clampfit software (Version 9.0.1; Axon Instruments). For a typical experiment, the extracellular fluid (ECF) used contained 150 mM NaCl, 5 mM KCl, 10 mM HEPES, 10 mM D-glucose, 2 mM CaCl2, and 1.0 mM MgCl2, with the osmotic pressure in the range of 320-335 mOsm, and pH 7.4 adjusted with 5 M NaOH. Patch electrodes (4-6 MΩ) contained 30 mM NaCl, 120 mM KCl, 0.5 mM CaCl2, 1 mM MgCl2, 10 mM HEPES, 2 mM MgATP, and 5 mM EGTA (pH 7.2 adjusted with 5 M KOH) at 300 mOsm. The ASIC1a activating ECF is identical to the normal ECF, except that MES was used to replace HEPES to maintain the ECF at pH 6.0. A coverslip with discretely distributed individual CHO-ASIC1a stable cells (6H7) on the surface was placed into a recording chamber under a constant perfusion (~2-3 mL/min) generated by an ALA 8 channel perfusion system (ALA Scientific Instruments Inc.) mounted on an inverted microscope. After achieving the break-in (whole-cell) configuration, the cell was voltage clamped at a holding potential of −70 mV. The normal ECF (pH 7.4) was first perfused onto the patched cell, and then, the activating ECF of pH 6.0 was rapidly applied to elicit a maximum inward ASIC1a current as control current. When testing the inhibition effect of the antibody, ECFs of pH 7.4 containing different concentrations of ASC06-IgG1 were perfused from low to high concentration into the recording chamber for 10-15 min. To measure the inhibition of the current, the activating ECFs of pH 6.0 containing the corresponding concentrations of the testing antibodies were applied to the same patched 6H7 cell to generate the inward currents that can be normalized to the control current of the same cell. […] Data acquired from four to five cells were used for statistical calculation of inhibition effects.
The function of ASC06-IgG1 was characterized using electrophysiology approach. The effect of ASC06-IgG1 antibody on the acid-induced, hASIC1a-mediated electrical current in cells was analyzed. PcTx1 was used as a positive control. […] The amplitudes of the hASIC1a-mediated inward currents of the stable cells were recorded and quantitated in the absence and presence of ASC06-IgG1, with venom peptide PcTx1 (100 nM) used as positive control. […] Unlike the sustained inhibition with the antibody after washing, the inhibition with PcTx1 could be readily washed out within 5 minutes (FIG. 5C).

[2] = system: MCAO-induced ischemic stroke model mice; assay: Middle cerebral artery occlusion (MCAO)-induced ischemic stroke model; type: in vivo, mouse; conditions: 4 μL i.c.v. 3 h after ischemia; 100 nM PcTx1 or 3.0 μg/μL ASC06-IgG1; 24 h after injection
Experimental: The Middle Cerebral Artery Occlusion (MCAO) Model. Animal care and the experimental protocols were approved by the Animal Ethics Committee of Shanghai Jiao Tong University School of Medicine, Shanghai, China. A transient ischemic stroke in the left brain hemisphere was established in male mice (C57 BL/6, 20-25 g) using middle cerebral artery occlusion (MCAO) for 1 h before reperfusion. Three hours after ischemia, a total of 4 μL of vehicle solution (PBS) in the absence or presence of neuroprotective agents) 100 nM PcTx1 or 3.0 μg/μL endotoxin-free ASC06-IgG1 ([…])) was administered by an intracerebroventricular (i.c.v.) injection on the contralateral side of the brain hemisphere. An irrelevant endotoxin-free antibody (3.0 μg/μL, […]) was used as isotype control. […] Mice were sacrificed 24 h after the i.c.v. injection. […] The infarct area was calculated by subtracting the normal area stained with TTC in the ischemic hemisphere from that of the nonischemic hemisphere. The infarct volume was calculated by summing infarction areas of all sections and multiplying by slice thickness.
To determine if the protective effect of antibody ASC06-IgG1 in vitro could be extended to pathologies in vivo, the middle cerebral artery occlusion (MCAO) model was used to study the antibody's neuroprotective effect. […] The infarct volume of the cortex and striatum were calculated 24 hours after the injection. […]

[3] = biological target: truncated hASIC1a (amino acids 13-464) (human) (UniProt P78348)
[4] = biological target: truncated hASIC1a (amino acids 13-464) (human) (UniProt P78348); assay: Octet, scFv format, ΔhASIC1a nanodiscs
[5] = biological target: truncated hASIC1a (amino acids 13-464) (human) (UniProt P78348); assay: Octet, scFv format at 500 nM, ΔhASIC1a nanodiscs
[6] = biological target: T2, hASIC1a-eYFP; assay: immunocytochemistry, confocal microscopy, CHO-K1 cells expressing hASIC1a-eYFP

Row | Molecule | inhibition of the acid-induced current, in words ([1]; 100 nM, positive control) | time for inhibition to be washed out ([1]; washout experiment) | infarct volume (compared with the contralateral brain region) [2] | Kd [3] | Kd [4] | Response [5] | binding result [6]
1 | Psalmotoxin-1 [PcTx1, reference compound] | nearly complete inhibition | ≤ 5 min | about 17% | – | – | – | –
2 | EDCIPKWKGCVNRHGDCCEGLECWKRRRSFEVCVPKTPKT (Fc fusion, ends and bridges not checked; also: fused with Fc, isotype, linker and order not given here) [venom peptide PcTx1 fused with Fc (PcTx1-Fc)] | – | – | – | 1 nM | – | – | –
3 | ASC03 (scFv, V domains shown, also called ASC03 scFv; ASC03 (scFv format)) VH: QVQLVESGAEVKKPGSSVKVSCKASGGNFRKYSISWVRQAPGQGLEWMGWISAYNGNTNYAQKLQGRVTMTTDTSTSTAYMELRSLRSDDTAVYYCARDFDPYYDAFDIWGQGTTVTVSS VL: QSALTQPASVSGSPGQSITISCTGTSSDVGAYNYVSWYQQHPGKAPKLMIYDVSNRLSGVSNRFSGSKSGNRASLTISGLQAEDEADYYCSSYRSGNSLAFGGGTKLTVLG | – | – | – | – | 259 nM | 0.269 | binds
4 | ASC04 (scFv, V domains shown, also called ASC04 scFv; ASC04 (scFv format)) VH: QVQLVQSGAEVKKPGSSVKVSCKASGGTFSTYAINWVRQAPGQGLEWMGWMNPNSGNTGYAQKFQGRVTMTRNTSISTAYMELSSLRSEDTAVYYCARYSYGMDVWGQGTTVTVSS VL: QAVLTQPSSLSASPGASVSLTCTLRSGINVGAYRIYWYQQKPGSPPQFLLRYKSDSDKQQGSGVPSRFSGSRDASANAGILLISGLRSEDEADYYCAIWHSSAWVFGGGTKLTVLG | – | – | – | – | 20.8 nM | 0.995 | binds
5 | ASC02 (scFv, V domains shown, also called ASC02 scFv; ASC02 (scFv format)) VH: QVQLVQSGAEVKKPGASMKVSCTTSGYTVTGYYIHWLRQAPGQGFEWMGWINPNLGVTNYAQKFQGRVSMTRDPSIKTAYLELSGLRSDDTAMYYCARASTGGIFYDYWGQGTLVTVSS VL: NFMLTQPHSMSESPGKTVTISCTRSSGNIASNYVQWYQQRPGSSPTTVIYDDNQRPSGVPDRFSGSIDSISNSASLTISGLKTEDEADYYCQSYDSSSVIFGGGTKLTVLG | – | – | – | – | 262 nM | 0.289 | binds
